Target: the molecule itself
Experiment: crystal structure

B1: Bacillus subtilis PurR (purine synthesis transcription regulator), untagged (natural protein)
chain: MKFRRSGRLVDLTNYLLTHPHELIPLTFFSERYESAKSSISEDLTIIKQTFEQQGIGTLLTVPGAAGGVKYIPKMKQAEAEEFVQTLGQSLANPERILPGGYVYLTDILGKPSVLSKVGKLFASVFAEREIDVVMTVATKGIPLAYAAASYLNVPVVIVRKDNKVTEGSTVSINYVSGSSNRIQTMSLAKRSMKTGSNVLIIDDFMKAGGTINGMINLLDEFNANVAGIGVLVEAEGVDERLVDEYMSLLTLSTINMKEKSIEIQNGNFLRFFKDNLLKNGETES
  binding result: binds

Reference: publication doi:10.1101/2020.12.02.409011 (bioRxiv, 2020)
